# Results reported in patent publication US10689628B2, “Method of making variant LovD polypeptides” (THE REGENTS OF THE UNIVERSITY OF CALIFORNIA, priority 2009, dated 2020).
# Where a chain is given by its changes, count along the chain named. Names and notes keep the numbering of the source.
# B1: GX12: LovD mutant with six mutations: C40A, C60N, A86V, D12G, G275S and A190T (protein, UniProt Q9Y7D1 1-413, looked up, variant C40A C60N A86V D12G G275S A190T)
# Monacolin J acid …: MGSIIDAAAAAGPVVLMETAFRKAVKSRQIPGAVIMARDASGNLNYTRCFGARTVRRDENNQLPPLQVDTPCRLASATKLLTTIMVLQCMERGLVDLDETVDRLLPDLSAMPVLEGFDDAGNARLRERRGKITLRHLLTHTSGLSYVFLHPLLREYMAQGHLQSAEKFGIQSRLAPPAVNDPGAEWIYGTNLDWAGKLVERATGLDLEQYLQENICAPLGITDMTFKLQQRPDMLARRADQTHRNSADGRLRYDDSVYFRADGEECFGGQGVFSSPGSYMKVLHSLLKRDGLLLQPQTVDLMFQPALEPRLEEQMNQHMDASPHINYGGPMPMVLRRSFGLGGIIALEDLDGENWRRKGSLTFGGGPNIVWQIDPKAGLCTLAFFQLEPWNDPVCRDLTRTFEHAIYAQYQQG
# B2: GX27: LovD mutant with eight mutations: C40A, C60N, A86V, D12G, G275S, A190T, H161Y (printed 11161Y) and K26E (protein, UniProt Q9Y7D1 1-413, looked up, variant C40A C60N A86V D12G G275S A190T H161Y K26E)
# Monacolin J acid …: B1 Monacolin J acid … with K26E, H161Y
# Legend:
# [1] = target: T1, LovD (Aspergillus terreus, UniProt Q9Y7D1); test: LovD transacylation of monacolin J with acyl-thioesters / acyl-CoAs (conversion by HPLC); assay type: biochemical; conditions: 10 μM LovD, 1 mM monacolin J, 4 mM acyl-thioester, 50 mM HEPES, pH 7.9, 25° C., 10 hours; HPLC 238 nm
# T1 construct: made in house; host or cells: E. coli BL21(DE3)/pAW31
# T1 sequence (Q9Y7D1 whole entry): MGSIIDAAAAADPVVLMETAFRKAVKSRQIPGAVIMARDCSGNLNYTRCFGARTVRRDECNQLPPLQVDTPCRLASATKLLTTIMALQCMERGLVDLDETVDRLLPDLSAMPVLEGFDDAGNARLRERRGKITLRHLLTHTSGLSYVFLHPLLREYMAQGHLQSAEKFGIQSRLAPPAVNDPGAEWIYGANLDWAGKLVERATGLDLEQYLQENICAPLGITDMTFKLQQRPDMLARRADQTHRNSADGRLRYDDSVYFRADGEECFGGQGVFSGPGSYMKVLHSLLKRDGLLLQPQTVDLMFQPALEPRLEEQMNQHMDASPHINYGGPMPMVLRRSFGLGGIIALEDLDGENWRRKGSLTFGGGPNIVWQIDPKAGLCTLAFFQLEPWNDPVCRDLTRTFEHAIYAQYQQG
# Method: Assays were performed with 1 mM monacolin J, 4 mM acyl-CoA and 10 uM LovD for 10 hours.
# [2] = test system: Neurospora crassa; test: Agar diffusion growth inhibition of Neurospora crassa by statins
# Method: N. crassa was grown on SDA slants for 10 days and spores were harvested with 1% Tween-80. 100 ml of molten SDA was seeded with 0.3-0.5×10^8 spores and poured into a 230×230 mm plate. Colonies from mutation library were cultured in 96 well plates containing 250 μl LB medium (with 35 mg/L kanamycin). The cells were grown at 37° C. to saturation and transferred to duplicated plates. Protein expression was induced with 0.1 mM IPTG at OD600 of 0.5 and the expression was performed at 25° C. for 16 h. 5 mM MJA and 10 mM DMB-SMMP were added to initiate the reaction. After a certain reaction time (45 mins to 4 hours depending on the activity of the parent), cells were removed with centrifugation (2,000 g, 4° C., 5 min). The amount of supernatant spotted on the SDA plate was typically 1-3 μl. The plates were incubated at 30° C. for 16˜18 hours.
# N. crassa was grown on SDA slants for 10 days and spores were harvested with 1% Tween-80. 100 ml of molten SDA was seeded with 0.3-0.5×10^8 spores and poured into a 230×230 mm plate. Colonies from mutation library were cultured in 96 well plates containing 250 μl LB medium (with 35 mg/L kanamycin). The cells were grown at 37° C. to saturation and transferred to duplicated plates. Protein expression was induced with 0.1 mM IPTG at OD600 of 0.5 and the expression was performed at 25° C. for 16 h. 5 mM MJA and 10 mM DMB-SMMP were added to initiate the reaction. […]
# [3] = test system: MJ acid and DMB-S-MMP; test: Kinetic assay of LovD wild type and mutants towards MJ acid and DMB-S-MMP; assay type: biochemical
# Method: Dimethyl sulfoxide (DMSO) was added to a final concentration of 10% to facilitate the solubilization of DMB-S-MMP. To compare the turnover rate of all mutants and the wild type protein, the MJ acid concentration was set at 1 mM and the DMB-S-MMP was set at 2 mM, the protein concentration was fixed at 10 uM, after the reaction was performed at room temperature for 2 hours, the reaction was quenched by adding EA/2% TFA. The organic phase was dried and redissolved in ACN for HPLC analysis.
# The concentration of DMB-S-MMP was fixed at 2 mM and MJ acid concentration was varied from 0.25 mM to 2.0 mM. […] For the rest LovD mutant proteins, we only checked the conversion of one time point.
# To obtain KM values for MJA and kcat, the DMB-SMMP concentration was fixed at 2 mM, while the concentration of MJA was varied from 0.25 to 5 mM. To obtain KM values for DMB-SMMP and kcat, the MJA concentration was fixed at 2 mM, while the concentration of DMB-SMMP was varied from 0.5 to 5 mM. Dimethyl sulfoxide (DMSO) was added to a final concentration of 10% to facilitate the solubilization of DMB-SMMP. At different time points of the kinetic assay, an aliquot of the reaction mixture was removed, quenched with 1% TFA and extracted with EA containing 1% acetic acid. The organic phase was separated, dried, resolubilized by acetonitrile (ACN) and analyzed by a Beckman Gold HPLC using a reverse phase C18 column (Alltech Apollo 5μ, 150 mm×4.6 mm) and a linear gradient: 60% ACN in water (0.1% trifluoroacetic acid (TFA)) to 95% ACN in water (0.1% TFA) for 10 min, 1 mL/min. Conversion of MJA to SVA was measured by integration of the peaks at 238 nm.
# [4] = test system: E. coli YT2; test: Whole-cell biocatalysis activity of LovD G0 and directed-evolution mutants (SVA synthesis); conditions: 25° C.
# Method: Wild type LovD and all mutants were cultured in parallel for comparison. A single colony of the freshly transformed YT2 competent cells was used to inoculate a 5 mL LB culture supplemented with 35 mg/L kanamycin. Following overnight growth at 37° C., 100 μl of the culture was inoculated into 50 mL LB medium supplemented with 35 mg/L kanamycin. When OD600 reached 0.4˜0.6, 0.1 mM IPTG was added to the cultures and expression of all LovD variants was performed at 25° C. for 16 hr. To mimic the high density fermentation conditions, the cells were then concentrated 10-fold before addition of substrates. A 10 ml aliquot of each culture was collected by centrifugation (4° C., 2,000 g, 10 min). The cell pellet was gently resuspended in 1 ml of the medium supernatant, followed by addition of 70 μl of MJA (300 mM stock) to a final concentration of 15 mM. The concentrated culture was then divided into seven 200 μl aliquots and 1 μl of pure DMB-SMMP was added to each sample to a final concentration of 20 mM. The small cultures were then shaken at 300 rpm at 25° C. At each time point, a complete extraction of one culture aliquot was performed by adding 10 μl of 20% SDS for cells lysis, followed by extraction with 500 μl ethyl acetate containing 1% trifluoroacetic acid TFA. The organic phase was removed, evaporated, and redissolved in 500 μl acetonitrile for HPLC analysis. The whole-cell activity was determined by fitting the linear regions of the conversion time course plot.
# Parent LovD G0 and all mutants were cultured in parallel for comparison. A single colony of the freshly transformed YT2 competent cells was used to inoculate a 5 mL LB culture supplemented with 35 mg/L kanamycin. Following overnight growth at 37° C., 100 μl of the culture was inoculated into 50 mL LB medium supplemented with 35 mg/L kanamycin. When OD600 reached 0.4˜0.6, 0.1 mM IPTG was added to the cultures and expression of all LovD variants was performed at 25° C. for 16 hr. To mimic the high density fermentation conditions, the cells were then concentrated 10-fold before addition of substrates. A 10 ml aliquot of each culture was collected by centrifugation (4° C., 2,000 g, 10 min). The cell pellet was gently resuspended in 1 ml of the medium supernatant, followed by addition of 70 μl of MJA (300 mM stock) to a final concentration of 15 mM. The concentrated culture was then divided into seven 200 μl aliquots and 1 μl of pure DMB-SMMP was added to each sample to a final concentration of 20 mM. The small cultures were then shaken at 300 rpm at 25° C. At each time point, a complete extraction of one culture aliquot was performed by adding 10 μl of 20% SDS for cells lysis, followed by extraction with 500 μl ethyl acetate containing 1% trifluoroacetic acid TFA. The organic phase was removed, evaporated, and redissolved in 500 μl acetonitrile for HPLC analysis. The whole-cell activity was determined by fitting the linear regions of the conversion time course plot.
# [5] = Soluble LovD protein expression level (Ni-NTA purification, Bradford assay)
# Method: Each mutant was transformed into E. coli YT2 strain and selected by Kanamycin (Kan). The transformant was grown in 500 ml LB-Kan media at 37° C. to OD600 0.4˜0.6, then 0.1 mM IPTG was added to induce protein expression at 20° C. for 16 hours. Cells were collected by centrifugation, resuspended in 30 ml Buffer A (50 mM Tris-HCl, pH 8.0, 2 mM 2 mM EDTA), and lysed by sonication. Cell debris and insoluble proteins were removed by centrifugation (16,000 g, 4° C., 1 h). To the cleared lysate, 2 ml of Ni-NTA resin (Qiagen) was added. Each mutant was purified using a step gradient of buffer A with increasing concentration of imidazole. Pure (>95%) LovD proteins were eluted in buffer A containing 250 mM imidazole, and then buffer exchanged into buffer A without imidazole. Glycerol was added to a final concentration of 10%, the proteins were aliquoted, and flash frozen.
# All nine mutants and the wild type LovD proteins were purified at the same time and under the same conditions. The proteins were purified from 50 ml LB culture. LovD was eluted in the last fraction which contains 250 mM imidazole. The concentration of the last fraction was determined by Bradford Assay using BSA as the standard.
# Each expression plasmid encoding LovD mutant was transformed into E. coli BL21(DE3). The transformant was cultured in 50 mL LB medium containing 35 mg/L Kan at 37° C. to optical density (OD600) value of 0.4˜0.6. Protein expression was induced with 0.1 mM IPTG and the subsequent expression was performed at 25° C. for 16 h. Cells were collected by centrifugation (2,000 g, 4° C., 15 min), resuspended in 7 mL Buffer A (50 mM Tris-HCl, pH 8.0, 2 mM DTT, 2 mM EDTA), and lysed by sonication. Cell debris and insoluble proteins were removed by centrifugation (20,000 g, 4° C., 1 h). To the cleared cell lysate, 0.5 mL of Ni-NTA resin (Qiagen, Valencia, Calif.) was added to each sample. […] The protein concentrations were qualitatively assessed by SDS-PAGE and quantitatively determined by the Bradford protein assay using bovine serum albumin (BSA) as the standard.
molecule,measurement,setting,value
CCCC(=O)SCC(=O)OC,Conversion (percent monacolin J converted to the corresponding lovastatin analog),[1],"92%, 6.8"
COC(=O)CSC(=O)c1ccccc1,Conversion (percent monacolin J converted to the corresponding lovastatin analog),[1],"70%, 7.6"
"C[C@H]1C=C2C=C[C@H](C)[C@H](CC[C@@H](O)C[C@@H](O)CC(=O)O)[C@H]2[C@@H](O)C1 [MJA, monacolin J acid]",quantity needed to inhibit the growth of N. crassa (in words),[2],hundred milligram quantities
"CCC(C)(C)C(=O)O[C@H]1C[C@@H](C)C=C2C=C[C@H](C)[C@H](CC[C@@H](O)C[C@@H](O)CC(=O)O)[C@H]21 [SVA, simvastatin acid]",quantity needed to inhibit the growth of N. crassa (in words),[2],sub-microgram quantities
CCC(C)(C)C(=O)SCC(=O)OC [drawing 22],Conversion (percent monacolin J converted to the corresponding lovastatin analog),[1],"17%, 8.5"
B1,improvement of the kcat/Km value compared to wild type enzyme,[3],2.83 fold
same,improvement in whole-cell activity compared to wild type enzyme,[4],7.5 fold
same,improvement of the soluble expression level compared to wild type enzyme,[5],2.3 fold
B2,improvement of the kcat/Km value compared to wild type enzyme,[3],3.45 fold
same,improvement in whole-cell activity compared to wild type enzyme,[4],11 fold
same,improvement of the soluble expression level compared to wild type enzyme,[5],4 fold
